Here are results for two substances from patent publication US20060270591A1, “Androgen receptor coregulators” (priority 2002, published 2006).

What all share (type): cell-based
The subject of one experiment is AR. The experiment can be described thus: Immunocytofluorescence, semi-quantitative nuclear AR staining in COS-1 cells. The settings on record: 10 nM DHT, p<0.0005. The procedure: 415. COS-1 cells were seeded on two-well Labtek II slides (Nalge) 24 hours before transfection. Two micrograms of DNA per 10^5 cell was transfected with the AR, with or without full length ARA70 (ARA70-FL) using FuGENE6 transfection reagent (Roche). […] Immunostaining was performed by incubation with anti-AR polyclonal antibody (NH27) or anti-ARA70 mouse monoclonal antibody (CC70), followed by incubation with either fluorescence-conjugated goat anti-rabbit or anti-mouse antibodies (ICN). The red signal represents the AR and the green signal represents ARA70.
416. Three hundred cells with normal morphologies and clear AR nuclear translocation were scored for AR staining using a fluorescence microscope. Cells were scored on a scale of one to five, with one representing the lowest AR staining intensity above the background level. The cells were then separated into two groups based on the presence or absence of ARA70.
417. The mean AR staining intensity and standard deviation were then calculated for the ARA70 negative and positive populations. Using […], a two sample t-test (assuming unequal variances) was then performed to determine if the difference in the mean AR staining intensities in the two populations was statistically significant (α=0.05).

For another experiment, the target named is T1, GR (Homo sapiens, UniProt P04150).
T1 sequence (P04150 1-777): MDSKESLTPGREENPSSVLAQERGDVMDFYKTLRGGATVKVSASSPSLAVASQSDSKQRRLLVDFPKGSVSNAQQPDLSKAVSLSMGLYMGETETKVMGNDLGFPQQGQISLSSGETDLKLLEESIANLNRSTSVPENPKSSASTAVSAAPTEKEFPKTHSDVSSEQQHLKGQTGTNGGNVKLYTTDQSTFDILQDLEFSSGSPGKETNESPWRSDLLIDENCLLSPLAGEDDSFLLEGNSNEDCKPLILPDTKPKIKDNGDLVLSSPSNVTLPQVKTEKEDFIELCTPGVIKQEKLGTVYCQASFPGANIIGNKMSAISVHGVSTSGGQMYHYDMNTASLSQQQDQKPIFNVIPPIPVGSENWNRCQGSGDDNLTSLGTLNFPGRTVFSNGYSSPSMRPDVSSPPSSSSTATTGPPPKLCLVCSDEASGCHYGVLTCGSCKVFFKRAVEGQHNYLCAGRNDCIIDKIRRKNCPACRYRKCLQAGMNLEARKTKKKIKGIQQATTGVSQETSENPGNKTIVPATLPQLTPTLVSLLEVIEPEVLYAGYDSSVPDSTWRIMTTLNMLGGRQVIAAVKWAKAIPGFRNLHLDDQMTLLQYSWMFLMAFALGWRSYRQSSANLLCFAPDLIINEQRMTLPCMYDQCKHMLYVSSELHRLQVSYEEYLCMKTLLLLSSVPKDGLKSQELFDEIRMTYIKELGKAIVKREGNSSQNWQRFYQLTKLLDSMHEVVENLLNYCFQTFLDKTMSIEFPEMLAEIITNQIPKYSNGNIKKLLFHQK
The experiment can be described thus: GR transactivation reporter assay with SV. Also noted: expressed in transfected cells; host or cells: DU145, PC-3, HepG2. The settings on record: MMTV-Luc; compared to AR. As to the method: (§1) 42. […] (A) The interaction of SV with AR, GR, PPAR-γ and ER-α is tested in mammalian two-hybrid assay. One μg plasmids expressing Gal4(DBD)-AR, GR, PPAR-γ or ER-α was co-transfected with 4 μg plasmids expressing VP16 or VP16-SVn to COS-1 cells. […] The assay method was the same as described in FIG. 29. Relative activities of ligand treatment to EtOH treatment are shown. (B) The coactivation function of SV in different receptors was assayed using reporter gene study. MMTV-Luc, PPRE-Luc, ERE-Luc are the reporter genes for AR, GR, PPAR-γ, and ER-α respectively. Lanes 1, 5, 9 and 13 are regarded as 1 fold in each panel.
AR, sequence (P10275 with tags, fused parts or gaps DEL79-80/DUP473-473): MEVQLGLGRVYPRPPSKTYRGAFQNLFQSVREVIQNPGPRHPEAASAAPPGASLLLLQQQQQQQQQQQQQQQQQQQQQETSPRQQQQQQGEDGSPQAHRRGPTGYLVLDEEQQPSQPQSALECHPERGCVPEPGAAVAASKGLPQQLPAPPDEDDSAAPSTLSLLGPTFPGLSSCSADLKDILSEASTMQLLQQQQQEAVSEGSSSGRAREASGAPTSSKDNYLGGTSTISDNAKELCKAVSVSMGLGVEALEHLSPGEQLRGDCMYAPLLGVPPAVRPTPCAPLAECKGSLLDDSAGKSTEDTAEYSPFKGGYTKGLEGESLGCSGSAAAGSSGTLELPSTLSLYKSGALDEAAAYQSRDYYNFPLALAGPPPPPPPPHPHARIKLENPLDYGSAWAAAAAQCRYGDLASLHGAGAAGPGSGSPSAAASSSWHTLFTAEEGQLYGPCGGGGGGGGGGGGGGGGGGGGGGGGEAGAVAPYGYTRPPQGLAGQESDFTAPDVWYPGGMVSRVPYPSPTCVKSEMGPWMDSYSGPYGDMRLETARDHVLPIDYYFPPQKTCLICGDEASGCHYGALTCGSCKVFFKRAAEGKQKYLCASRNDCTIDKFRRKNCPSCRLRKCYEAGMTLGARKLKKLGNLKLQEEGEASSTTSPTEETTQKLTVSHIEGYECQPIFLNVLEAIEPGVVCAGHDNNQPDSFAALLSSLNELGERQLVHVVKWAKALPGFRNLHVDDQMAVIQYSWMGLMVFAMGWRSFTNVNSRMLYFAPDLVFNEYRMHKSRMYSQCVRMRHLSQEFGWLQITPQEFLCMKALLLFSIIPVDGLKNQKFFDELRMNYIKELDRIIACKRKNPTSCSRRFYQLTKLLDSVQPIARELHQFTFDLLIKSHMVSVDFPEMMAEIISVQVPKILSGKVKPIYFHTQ
(§2) 475. In AR transactivation activity assays, transfections were performed using SuperFect (Qiagen, Chatsworth, Calif.) following protocols described in manual provided by Qiagen. Briefly, cells were plated on 35 mm dishes and after 24 h were transfected using the SuperFect kit. The total DNA amount was adjusted to 2 μg with pSG5 or pEGFP vectors. The medium was changed to DMEM with 10% CD-FBS 2 h after transfection. After 24 h, the DMEM with 10% CD-FBS was changed again, and the cells were treated with various steroids. Cells were harvested after 24 h for dual-luciferase assay as described in protocol provided by Promega. At least three independent experiments were carried out in each case.

Another experiment addresses T2, PPAR-γ (Homo sapiens, UniProt P37231).
T2 sequence (P37231 1-505): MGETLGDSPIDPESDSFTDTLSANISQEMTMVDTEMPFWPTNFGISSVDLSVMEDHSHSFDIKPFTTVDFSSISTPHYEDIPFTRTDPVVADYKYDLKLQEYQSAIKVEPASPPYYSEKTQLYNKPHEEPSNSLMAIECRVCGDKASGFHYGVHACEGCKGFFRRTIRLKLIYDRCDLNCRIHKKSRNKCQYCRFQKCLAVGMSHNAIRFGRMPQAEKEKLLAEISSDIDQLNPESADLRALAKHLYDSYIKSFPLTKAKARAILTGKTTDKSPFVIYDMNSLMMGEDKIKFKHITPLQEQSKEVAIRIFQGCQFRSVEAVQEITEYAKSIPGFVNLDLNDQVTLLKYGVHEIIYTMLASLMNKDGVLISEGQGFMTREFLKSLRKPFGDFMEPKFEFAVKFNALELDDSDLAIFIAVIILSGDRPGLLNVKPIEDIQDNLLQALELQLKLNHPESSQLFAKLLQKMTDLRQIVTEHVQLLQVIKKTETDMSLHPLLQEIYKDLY
Kind of experiment: PPAR-γ transactivation reporter assay (PPRE-Luc) with SV. The procedure: as §1, §2

“ARA70: ligand-enhanced AR coregulator, full length ARA70”: in the experiment with AR, the “nuclear AR staining intensity” value was “significantly enhances nuclear AR staining intensity”.

Turning to “SV: supervillin, 205 kDa actin binding protein; bovine SV (a.a. 1-1792) used in reporter assays”, the “effect on the transactivation of GR” value with GR is recorded as “less enhancement effect”. In the experiment with PPAR-γ, the “effect on the transactivation of PPAR-γ” value was “little effect”.
